In one data set the target is T1, Cas12m2 (SPR prep) (UniProt PDB:8HIO_2 1-596).
T1 sequence: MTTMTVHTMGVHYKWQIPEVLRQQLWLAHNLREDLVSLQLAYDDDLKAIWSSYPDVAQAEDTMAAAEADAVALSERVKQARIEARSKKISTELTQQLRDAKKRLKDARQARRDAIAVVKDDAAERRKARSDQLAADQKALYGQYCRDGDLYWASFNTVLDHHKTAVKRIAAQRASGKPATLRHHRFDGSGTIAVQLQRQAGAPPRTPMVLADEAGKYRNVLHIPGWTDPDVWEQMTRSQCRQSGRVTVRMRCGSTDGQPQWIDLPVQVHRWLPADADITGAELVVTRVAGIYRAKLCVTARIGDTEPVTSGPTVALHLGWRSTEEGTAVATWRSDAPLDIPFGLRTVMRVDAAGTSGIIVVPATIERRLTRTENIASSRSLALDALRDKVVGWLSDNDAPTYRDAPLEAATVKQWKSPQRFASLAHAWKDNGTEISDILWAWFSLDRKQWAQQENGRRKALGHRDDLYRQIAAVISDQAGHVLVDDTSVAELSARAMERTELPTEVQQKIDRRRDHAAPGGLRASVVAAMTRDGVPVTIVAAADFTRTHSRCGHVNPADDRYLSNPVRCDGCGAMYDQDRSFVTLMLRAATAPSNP
Briefly: SPR; 5 mM Mg2+; two-state fit, 8-63 nM RNP; SPR: 20 mM HEPES pH 7.8, 150 mM KCl, 10% glycerol, 5 mM MgCl2, 1 mM DTT, 0.05% Tween-20, 25 C; cryo-EM: 20 mM HEPES-NaOH pH 7.6, 50 mM NaCl, 2 mM MgCl2, 10 uM ZnCl2. The settings on record: protein: recombinant; tags: pML-1B vector, nickel-purified (His); label: 5'-biotin on DNA top strand; guide pairs with DNA top strand; DNA blunt 50-bp duplex. On the technique in general: Surface plasmon resonance follows binding to a sensor surface in real time, without labels.

The next data set concerns the target T2, Cas12m2 (UniProt PDB:8HIO_2 1-596).
T2 sequence: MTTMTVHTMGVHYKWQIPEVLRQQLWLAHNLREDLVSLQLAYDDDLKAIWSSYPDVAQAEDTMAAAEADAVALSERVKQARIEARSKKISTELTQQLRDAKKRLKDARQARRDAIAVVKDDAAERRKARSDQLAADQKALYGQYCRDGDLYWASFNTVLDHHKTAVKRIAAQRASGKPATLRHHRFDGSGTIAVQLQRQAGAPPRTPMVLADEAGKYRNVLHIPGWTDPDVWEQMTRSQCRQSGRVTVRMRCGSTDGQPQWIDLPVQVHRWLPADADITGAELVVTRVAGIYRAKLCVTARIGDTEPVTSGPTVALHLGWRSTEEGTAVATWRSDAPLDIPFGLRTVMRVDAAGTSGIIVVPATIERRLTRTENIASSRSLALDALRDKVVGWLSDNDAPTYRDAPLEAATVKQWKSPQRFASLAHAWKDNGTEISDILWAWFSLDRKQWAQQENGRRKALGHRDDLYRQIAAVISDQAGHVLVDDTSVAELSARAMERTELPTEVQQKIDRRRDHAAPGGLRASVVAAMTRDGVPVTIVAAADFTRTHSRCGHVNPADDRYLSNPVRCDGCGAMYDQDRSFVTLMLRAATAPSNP
Nature of the data set: cryo-EM; full R-loop state (state I), 17-bp heteroduplex; Mg2+, Zn2+; SPR: 20 mM HEPES pH 7.8, 150 mM KCl, 10% glycerol, 5 mM MgCl2, 1 mM DTT, 0.05% Tween-20, 25 C; cryo-EM: 20 mM HEPES-NaOH pH 7.6, 50 mM NaCl, 2 mM MgCl2, 10 uM ZnCl2. The conditions noted are these: protein: recombinant; tags: N-terminal His6; crRNA guide pairs with S4 (17 bp, R-loop); S4/S5 blunt 36-bp duplex.

Another data set concerns the target T3, Cas12m2 (binary complex) (UniProt PDB:8HIO_2 1-596).
T3 sequence: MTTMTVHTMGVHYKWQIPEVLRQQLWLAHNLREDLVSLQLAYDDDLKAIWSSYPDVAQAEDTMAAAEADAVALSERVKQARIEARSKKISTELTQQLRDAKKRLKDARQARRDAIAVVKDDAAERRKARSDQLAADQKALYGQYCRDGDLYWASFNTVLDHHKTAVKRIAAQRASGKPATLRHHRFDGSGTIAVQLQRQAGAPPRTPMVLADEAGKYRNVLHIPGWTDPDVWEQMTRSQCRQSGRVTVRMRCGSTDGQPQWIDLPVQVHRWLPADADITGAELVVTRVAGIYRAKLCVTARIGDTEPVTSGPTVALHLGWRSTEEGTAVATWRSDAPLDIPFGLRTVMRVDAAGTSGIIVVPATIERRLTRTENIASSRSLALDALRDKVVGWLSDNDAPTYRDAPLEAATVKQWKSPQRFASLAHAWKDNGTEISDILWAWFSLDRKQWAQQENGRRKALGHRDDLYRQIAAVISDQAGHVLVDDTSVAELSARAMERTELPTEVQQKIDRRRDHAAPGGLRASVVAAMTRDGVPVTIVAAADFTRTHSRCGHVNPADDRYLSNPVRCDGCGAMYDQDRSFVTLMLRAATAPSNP
Nature of the data set: cryo-EM; binary complex; SPR: 20 mM HEPES pH 7.8, 150 mM KCl, 10% glycerol, 5 mM MgCl2, 1 mM DTT, 0.05% Tween-20, 25 C; cryo-EM: 20 mM HEPES-NaOH pH 7.6, 50 mM NaCl, 2 mM MgCl2, 10 uM ZnCl2. The conditions noted are these: protein: recombinant; tags: N-terminal His6; chain copies: 2; stem and pseudoknot scaffold.

B1: PAM-SCNR RNA + 50-bp target dsDNA (mixed)
RNA: GUGUCAUAGCCCAGCUUGGCGGGCGAAGGCCAAGACGUCGAGUGCAAAACCUUUCG
DNA 1: CAGCTATAGTTCTCGAAAGGTTTTGCACTCGACTAAAGGACTCTATGACC
DNA 2: GGTCATAGAGTCCTTTAGTCGAGTGCAAAACCTTTCGAGAACTATAGCTG
By Kd is commonly meant the concentration at which binding is half-saturated. As for B1, the Kd with Cas12m2 (SPR prep) is about 2.7 nM.

B2: crRNA (56 nt) + 36-bp target DNA (TTG PAM) (mixed)
RNA: GUGUCAUAGCCCAGCUUGGCGGGCGAAGGCCAAGACGGAGAUGAGGUGCGCGUGGC
DNA 1: GATGGTGCCACGCGCACCTCATCTCCCAAATAGACA
DNA 2: TGTCTATTTGGGAGATGAGGTGCGCGTGGCACCATC
B2: the binding result with Cas12m2 was “binds”.

B3: crRNA (56 nt) (structured_RNA)
RNA: GUGUCAUAGCCCAGCUUGGCGGGCGAAGGCCAAGACGGAGAUGAGGUGCGCGUGGC
On to B3, for which the binding result with Cas12m2 (binary complex) is on record as “binds”.

Values taken from PMC10442227, “Mechanistic and evolutionary insights into a type V-M CRISPR–Cas effector enzyme”.
